T1: MMP-7
T1 sequence (P09237 95-267, species assumed, looked up): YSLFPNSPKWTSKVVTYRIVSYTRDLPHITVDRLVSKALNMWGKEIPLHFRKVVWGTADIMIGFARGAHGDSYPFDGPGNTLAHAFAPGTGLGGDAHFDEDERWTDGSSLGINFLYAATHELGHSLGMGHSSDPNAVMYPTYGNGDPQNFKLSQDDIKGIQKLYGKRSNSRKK

B1: VENLHLPLPLL (SEQ ID NO:18) (peptide)
peptide: VENLHLPLPLL
B2: ENLLRFFVAPFPEVFG (SEQ ID NO:22) (peptide)
peptide: ENLLRFFVAPFPEVFG
B3: NLHLPLPLL (SEQ ID NO:12) (peptide)
peptide: NLHLPLPLL
B4: FVAPFPEVFG (SEQ ID NO:23) (peptide)
peptide: FVAPFPEVFG
B5: ENLHLPLPLL (SEQ ID NO:19) (peptide)
peptide: ENLHLPLPLL
B6: NENLLRFFVAPFPEVFG (SEQ ID NO:21) (peptide)
peptide: NENLLRFFVAPFPEVFG
B7: LNENLLRFFVAPFPEVFG (SEQ ID NO:20) (peptide)
peptide: LNENLLRFFVAPFPEVFG

target: MMP-9; experiment: cell-based or functional assay

IC50 for the inhibition of MMPs using a fluorescein conjugated gelatin [µM]	Binder
300	B1
150	B2
600	B3
400	B4
300	B5
50	B6
150	B7

target: MMP-2; experiment: cell-based or functional assay

IC50 for the inhibition of MMPs using a fluorescein conjugated gelatin [µM]	Binder
150	B1
425	B2
450	B3
500	B4
200	B5
275	B6
250	B7

target: T1, MMP-7; experiment: cell-based or functional assay

IC50 for the inhibition of MMPs using a fluorescein conjugated gelatin [µM]	Binder
250	B1
1000	B2
1200	B3
300	B4
275	B5
850	B6
300	B7

target: angiotensin-converting enzyme (ACE); experiment: cell-based or functional assay

IC50 for the inhibition of ACE using the substrate FAPGG [µM]	Binder
175	B1
250	B2
15	B3
650	B4
250	B5
55	B6
280	B7

Reference: US20050187155A1 (NESTEC S A, published 2005)
